Assay: yeast display, Sf9 membrane polyspecificity reagent, FACS + sequencing; frameworks hold sequencing errors
How it was run: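 Using colony PCR, genes from sorted yeast display clones were amplified, then sequenced on MiSeq at 2 × 250 and filtered by CDR length. The clones had been stained with 10% biotinylated, detergent-solubilized Sf9 membrane reagent for 1 hour at 4 °C and sorted by FACS into low and high (top ~1%) gates on anti-HA and streptavidin fluorescence. Polyreactivity labels come from the gate of origin.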

| Sequence | polyreactivity (PSR sort gate) |
| --- | --- |
| AVQLVESGGGLVQAGGSLRLSCAASGSIFPWYTMGWYRQAPGKERELVASITKSGARTYYADSVKGRFTISRDNAKNTVYLQMNSLKPEDTAVYYCAAVYPVWKYHYAYWGQGTQVTVSS | high polyreactivity |
| EDELVESGGGIVQAGGSLRLSCAATGSIIVVNAMVWYRQAPRKERELVAAISRGGITNYADSVKGRFTISRDNAKNTVYLQMNSLKPEDTAVYYCNARGSRWVKPERDYWGQGTQVTVSS | low polyreactivity |
| EEELVESGGGLVQAGGSLRLSCAASGRTFARNAMGWYRQAPGKERELVAGINFSGGNTYYADSVKGRFTISRDNAKNTVYLQMNSLKPEDTEVYYCAPRRYWEGDYWGQGTQVTVSS | low polyreactivity |
| EEELVESGGGLVQAGGSLRLSCAASGRTYPNTMGWYRQAPGKERELVAAITTSGTSTRYADSVKGRFTISRDNAKNTVYLQMNSLKPEDTAVYYCATRYSGKTYHYNYWGQGTQVTVSS | high polyreactivity |
| EEELVESGGGLVQAGGSLRLSCAASGSTFLVYAMGWYRQAPGKERELVAVITYSTVRTYYADSVKGRFTISRDNAKNTVYLQMNSLKPEDTAVYYCNADKEYAVLGQGMDYWGQGTQVSVSS | low polyreactivity |
| EEELVESGGGLVQAGGSLSLICAASGLTFYIYAMGWYRPAPGKERELVAAITTSGDSTYYADSVKGRFTISRDNAKNTVYLLLNSLKPEDTAVYYGAAAVWHYGRPGYLDSGYDYWGQGTQVSVSS | low polyreactivity |
| EVHLVESGGCLVQPRGSLRLSCAASGYNYIRYRMGSYRQAPGKVREFVAAISGGSSTNYADSVKGRFTISRDNSKNTVYLQMNSLRAEDTAVYYCAAYKIDSDPRVYWGQGTQVTVSS | low polyreactivity |
| EVQLQESGGGLVQAGGSLRLSCAASGYTYNEYVMGWYRQATGKERELVAAISGSGGSTYYADSVKGRFTISRDNAKNTVYLQMNSLKPEDTAVYYCAARGYNSRGYDMDYWGQGTQVTVSS | high polyreactivity |
| EVQLVESGGGLVQPGGSLRLSCEASGYIYSRYRMGWYRQAPGKAREFVAAISGGSSTNYADSVKGRFTISRDNSKNTVYLQMNSLRAEDTAVYYCAAYKIDSDPRVYWGQGTQVTVSS | low polyreactivity |
| GSTIYADSVKGRFTISRDNAKNTVYLQMNSLKPEDTAVYYCNKDDRNDRTIPGYDPEYDYWGQGTQVTVSS | low polyreactivity |
| HAQLQESGGGLVQAGGSLRRSCAASGSIFRFSGMGWYRRAPGKERELVASIGFGSITYYADRVKGRFTISRDHANNTVYLQMNSLKPEDTAVYYCAVQVQDESWLDYWGQGTQVTVSC | low polyreactivity |
| HDQLVESGGGFVQAGGSLRLICAASGSTFIGYAMGWYRQAPGKERELVADISWSGGRTYYADSVKGRFTISRDNEKNTVYLQMNSLKPEDTAVYYCAARGSGHTRSYYWGQGTQVTVSS | high polyreactivity |
| HDQLVESGGGLVQAGGSLRLTCAASGFIFGAYTMGWYRQAPGKERELVAAISWSGDSTYYADSVKGRFTISRDNAKNTVYLQMNSLKPEDTAVYYCAAVWYWSGFDYWGQGTQVTVSS | high polyreactivity |
| HEHLQESRGGLVQAGGSLRLSCAASGSIFQATYMGWYRQAPRKEREFVASITYGSITNYADSVKGRFTIGRDNATDTLYLQMNSLKQEDTAVYYWAVDRHYIPAFHYWGQGTQVTVSS | low polyreactivity |
| HFQLVESGGGIVQAGGSLRLSCAASGRTCFYNAMGWYRQAPGKERELVAAISWSGGSTYYADSVKGRFTISRDNAKNPVSLQMNSLNREDTAVYYCNAAYGRRYDYWGQGTQVTVSS | high polyreactivity |
| HGQLVESGGGLVQAGGSLRLSCAASGVTFSYYAMGWYRQGPGKDRELVAAITSSAGSTYYADSVKGRFTISRDNAKNTVYLQMNSLKPEDSALYYCNAVYSKLNGGYDYWGQGTQVTVSS | low polyreactivity |
| HLQLVESGGGLVQAGGSLRLSCAPSGRILRDYDMGWYRQAPGKERELVAAINWSDGSTYYADSVKGRFTISRDNAKNTVYLQMNSLKPDDTAVFYCAASRWRPLERGTSWLHDYWGQGTQVTVSS | low polyreactivity |
| HVPLVESGGGLVQAGGSLRLSCAASGSIFVWYVMGWYRQAPGKEWELVAAITWSAARTYYADSVKGRFTISRDNAKITVYLQMNSLKPEDTAVYYGAADPVSYQPSSRIFDYWGQATQVTVSS | low polyreactivity |
